Measured values reported in patent US7557190.

Molecular target: T1, Ep-CAM/Fc (recombinant human) (human, UniProt P16422)
T1 chain: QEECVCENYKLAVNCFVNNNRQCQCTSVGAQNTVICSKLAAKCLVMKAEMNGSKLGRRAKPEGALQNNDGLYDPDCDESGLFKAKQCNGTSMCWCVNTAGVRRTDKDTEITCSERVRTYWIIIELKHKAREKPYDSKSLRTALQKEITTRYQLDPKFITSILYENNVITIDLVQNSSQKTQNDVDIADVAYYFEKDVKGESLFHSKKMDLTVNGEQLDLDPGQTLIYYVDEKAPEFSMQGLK
Test: SPR

Kd: 64.9 nM
B1: H3.77/L3 (humanized 17-1A) (antibody, V domains shown)
VH: EVQLVESGGGLVQPGGSLRLSCAASGYSFTNYLIEWVRQAPGQGLEWMGVINPGSGGTNYNPSLKSRVTISADKSISTAYMELSSLRSEDTAVYFCARDGPWFAYWGQGTLVTVSS
VL: NIVMTQSPDSLAVSLGERATLSCRASENVVTYVSWYQQKPGQSPQLLIYGASNRYTGVPDRFTGSGSATDFTLTINSLEAEDAATYYCGQGYSYPYTFGGGTKLEIK
